Results on seven proteins are retold here after publication PMC6750108, “Crystal Structure of 4-Hydroxyphenylpyruvate Dioxygenase in Complex with Substrate Reveals a New Starting Point for Herbicide Discovery” (Research, 2019).

Residue numbers refer to the chain shown, from its start. Numbers in names are those of the source.

Sequences and labels used below:
B1: AtHPPD (Arabidopsis thaliana; N282A) (protein)
chain: MGHQNAAVSENQNHDDGAASSPGFKLVGFSKFVRKNPKSDKFKVKRFHHIEFWCGDATNVARRFSWGLGMRFSAKSDLSTGNMVHASYLLTSGDLRFLFTAPYSPSLSAGEIKPTTTASIPSFDHGSCRSFFSSHGLGVRAVAIEVEDAESAFSISVANGAIPSSPPIVLNEAVTIAEVKLYGDVVLRYVSYKAEDTEKSEFLPGFERVEDASSFPLDYGIRRLDHAVGNVPELGPALTYVAGFTGFHQFAEFTADDVGTAESGLNSAVLASNDEMVLLPIAEPVHGTKRKSQIQTYLEHNEGAGLQHLALMSEDIFRTLREMRKRSSIGGFDFMPSPPPTYYQNLKKRVGDVLSDDQIKECEELGILVDRDDQGTLLQIFTKPLGDRPTIFIEIIQRVGCMMKDEEGKAYQSGGCGGFGKGNFSELFKSIEEYEKTLEAKQLVG
notes: full-length, N-terminal His tag (pET15b), E. coli BL21 (DE3); Ni-NTA, ion exchange, size exclusion; homodimers in crystal
B2: AtHPPD (Arabidopsis thaliana; N423A) (protein)
chain: B1 chain with A282N, N423A
notes: as for B1
B3: AtHPPD (Arabidopsis thaliana; F381A) (protein)
chain: B1 chain with A282N, F381A
notes: as for B1
B4: AtHPPD (Arabidopsis thaliana; S267A) (protein)
chain: B1 chain with S267A, A282N
notes: as for B1
B5: AtHPPD (Arabidopsis thaliana; Q293A) (protein)
chain: B1 chain with A282N, Q293A
notes: as for B1
B6: AtHPPD (Arabidopsis thaliana; Q307A) (protein)
chain: B1 chain with A282N, Q307A
notes: as for B1
B7: AtHPPD (Arabidopsis thaliana) (protein)
chain: B1 chain with A282N
notes: as for B1

What is called Km is the substrate concentration at which the rate is half of its maximum. What is called kcat is the number of substrate molecules converted per active site and unit of time at saturation. Broadly, the kcat/Km is the turnover number divided by the Michaelis constant.

Substrate in one series: O=C(O)C(=O)Cc1ccc(O)cc1
Kind of series: purified protein. In kind it is biochemical, Arabidopsis thaliana. As to conditions: apparent, air-saturated 20 mM HEPES pH 7.0, 25 °C, 0.1 mM FeSO4, 2 mM ascorbate.
With B1, the Km came out at 10.83 ± 2.33 µM, the kcat is 0.039 ± 0.003 s⁻¹ and the kcat/Km amounted to 3600 M⁻¹ s⁻¹.
With B2, the Km was determined as 15.66 ± 4.29 µM, the kcat is 0.545 ± 0.061 s⁻¹ and the kcat/Km was determined as 34800 M⁻¹ s⁻¹.
With B3, the Km is 9.10 ± 0.94 µM, the kcat turned out to be 0.924 ± 0.032 s⁻¹ and the kcat/Km worked out at 102000 M⁻¹ s⁻¹.
In the same order, the values of B4 are 5.33 ± 1.59 µM, 0.249 ± 0.025 s⁻¹ and 46700 M⁻¹ s⁻¹.
As for B5, the Km was determined as 90.41 ± 11.33 µM, the kcat came out at 0.014 ± 0.001 s⁻¹ and the kcat/Km is 150 M⁻¹ s⁻¹.
As to B6, the Km turned out to be 30.31 ± 1.67 µM, the kcat came out at 0.176 ± 0.004 s⁻¹ and the kcat/Km worked out at 5800 M⁻¹ s⁻¹.

Still in this series, the particulars now being: apparent, air-saturated 20 mM HEPES pH 7.0, 25 °C, 0.1 mM FeSO4, 2 mM ascorbate, crystal with Co2+, 2.80 Å.
With B7, the Km worked out at 1.87 ± 0.37 µM, the kcat worked out at 1.08 ± 0.053 s⁻¹ and the kcat/Km worked out at 577000 M⁻¹ s⁻¹.
